Our source for the activity values is patent publication US20240301385, “DNA MODIFYING ENZYMES AND ACTIVE FRAGMENTS AND VARIANTS THEREOF AND METHODS OF USE” (LIFEEDIT THERAPEUTICS, INC., published 2024).

This series addresses T1, APG09980-L16-nAPG07433.1 cytosine base editor (synthetic).
T1 chain: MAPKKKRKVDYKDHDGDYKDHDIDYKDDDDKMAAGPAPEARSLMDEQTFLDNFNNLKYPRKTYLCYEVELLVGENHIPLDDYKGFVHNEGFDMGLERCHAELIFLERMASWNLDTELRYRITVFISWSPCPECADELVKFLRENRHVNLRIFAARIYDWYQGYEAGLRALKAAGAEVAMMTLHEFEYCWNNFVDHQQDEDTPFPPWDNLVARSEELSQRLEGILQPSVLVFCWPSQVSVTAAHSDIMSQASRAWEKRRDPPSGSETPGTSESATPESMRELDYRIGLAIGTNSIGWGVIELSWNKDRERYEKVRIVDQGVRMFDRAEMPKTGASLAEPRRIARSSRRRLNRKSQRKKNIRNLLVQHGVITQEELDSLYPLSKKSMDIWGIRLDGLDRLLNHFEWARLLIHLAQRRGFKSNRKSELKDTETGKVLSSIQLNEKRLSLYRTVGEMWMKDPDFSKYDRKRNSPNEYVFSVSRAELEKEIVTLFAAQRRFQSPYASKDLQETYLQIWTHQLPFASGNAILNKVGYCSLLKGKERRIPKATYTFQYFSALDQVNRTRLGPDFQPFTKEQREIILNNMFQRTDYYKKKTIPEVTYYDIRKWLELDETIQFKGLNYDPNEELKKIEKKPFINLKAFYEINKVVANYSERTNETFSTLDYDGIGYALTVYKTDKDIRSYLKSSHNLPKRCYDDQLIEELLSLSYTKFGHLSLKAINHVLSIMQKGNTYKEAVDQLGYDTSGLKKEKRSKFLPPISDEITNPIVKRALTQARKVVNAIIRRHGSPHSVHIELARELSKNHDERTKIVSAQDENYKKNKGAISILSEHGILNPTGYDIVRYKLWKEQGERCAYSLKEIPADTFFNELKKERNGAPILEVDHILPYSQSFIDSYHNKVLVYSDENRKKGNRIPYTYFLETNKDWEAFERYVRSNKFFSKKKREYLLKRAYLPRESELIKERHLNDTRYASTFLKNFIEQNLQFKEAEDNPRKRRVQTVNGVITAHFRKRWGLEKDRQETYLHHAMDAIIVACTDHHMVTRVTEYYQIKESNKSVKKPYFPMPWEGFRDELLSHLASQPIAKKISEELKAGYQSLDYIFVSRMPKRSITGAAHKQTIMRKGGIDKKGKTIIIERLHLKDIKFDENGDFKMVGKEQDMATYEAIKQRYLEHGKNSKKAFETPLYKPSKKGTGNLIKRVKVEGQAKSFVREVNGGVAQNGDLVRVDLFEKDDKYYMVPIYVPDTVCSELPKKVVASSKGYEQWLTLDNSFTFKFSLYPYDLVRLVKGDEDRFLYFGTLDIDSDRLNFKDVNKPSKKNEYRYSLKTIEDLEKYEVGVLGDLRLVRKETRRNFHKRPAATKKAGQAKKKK
As to the kind of experiment: cell_activity; HEK293FT; PAM SEQ 152. Particulars: tags: SV40 NLS, 3xFLAG N-term; nucleoplasmin NLS C-term. The gist of the method:
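Editing read out by next-generation sequencing (MiSeq 2×250) of PCR amplicons spanning the target site, analysed for INDELs or % cytosine conversion per position (position 1 nearest PAM).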

B1: SGN000930 sgRNA ; SGN000930 target (ssRNA ; dsDNA)
RNA: GAACAACUCAAAUGGAAAUGAAUAUGUCAUAGUUCCAUGAAAGCCAAAAGUGGCUUUGAUGUUUCUAUGAUAAGGGUUUCGGCCCGUGGCGUCGGGGAUCGCCUGCCCAUUCCGAUGGGCUUCUCCCCAUUUAUU
DNA 1: GAACAACTCAAATGGAAATGAATAT
DNA 2: ATATTCATTTCCATTTGAGTTGTTC
In the case of B1, the activity was 25.2 % mutated reads.

B2: SGN000169 sgRNA ; SGN000169 target (ssRNA ; dsDNA)
RNA: CACAUCUCGAGCAAGACGUUGUCAUAGUUCCAUUAAAGCCAAAAGUGGCUUUGAUGUUUCUAUGAUAAGGGUUUCGACCCGUGGCGUCGGGGAUCGCCUGCCCAUUGAAAUGGGCUUCUCCCCAUUUAUU
DNA 1: CACATCTCGAGCAAGACGTT
DNA 2: AACGTCTTGCTCGAGATGTG
Take B2: the activity stood at 24.8 % mutated reads.
